Source: patent US20260193326A1 (published 2026)

What was measured:
AAV8 [1] = target: T1, AAV8 (adeno-associated virus 8); assay: SPR, AAV amine-coupled to CM5 chip;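 note: nanobodies flowed as analyte at seven concentrations spanning 1–100 nM over immobilized AAV (500–800 RU), kinetic constants derived by fitting the binding curves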
T1 construct: also called adeno-associated virus serotype 8
Procedure: (§1) AAV was amine-coupled to a CM5 sensor chip at a density of 500-800 response units (RU). Nanobodies were injected at seven concentrations (1-100 nM) with a flow rate of 45 μL/min, and chip regeneration was performed using glycine-HCl (pH 1.5). Binding curves at different nanobody concentrations were used to calculate kinetic parameters (Kₐ, Kd, KD) (Table 2 and FIG. 2).

AAV2 = target: T2, AAV2 (adeno-associated virus 2, UniProt P03135 1-735); assay: SPR, AAV amine-coupled to CM5 chip;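 note: nanobodies flowed as analyte at seven concentrations spanning 1–100 nM over immobilized AAV (500–800 RU), kinetic constants derived by fitting the binding curves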
T2 construct: also called adeno-associated virus serotype 2
Procedure: as §1

AAV9 [2] = target: T3, AAV9 (adeno-associated virus 9); assay: SPR, AAV amine-coupled to CM5 chip;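 note: nanobodies flowed as analyte at seven concentrations spanning 1–100 nM over immobilized AAV (500–800 RU), kinetic constants derived by fitting the binding curves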
T3 construct: also called adeno-associated virus serotype 9
Procedure: as §1

AAV5 [3] = target: T4, AAV5 (adeno-associated virus 5); assay: SPR, AAV amine-coupled to CM5 chip;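 note: nanobodies flowed as analyte at seven concentrations spanning 1–100 nM over immobilized AAV (500–800 RU), kinetic constants derived by fitting the binding curves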
T4 construct: also called adeno-associated virus serotype 5
Procedure: as §1

AAV8 [4] = target: T5, AAV8 (adeno-associated virus serotype 8); assay: SPR, AAV on CM5 chip;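 note: surface plasmon resonance with AAV amine-coupled to the chip as ligand, nanobodies injected as analyte over a concentration series, rate constants and affinity fitted from binding curves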
T5 construct: also called adeno-associated virus serotype 8
Procedure: as §1

AAV9 [5] = target: T6, AAV9 (adeno-associated virus serotype 9); assay: SPR, AAV on CM5 chip;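 note: surface plasmon resonance with AAV amine-coupled to the chip as ligand, nanobodies injected as analyte over a concentration series, rate constants and affinity fitted from binding curves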
T6 construct: also called adeno-associated virus serotype 9
Procedure: as §1

AAV5 [6] = target: T7, AAV5 (adeno-associated virus serotype 5); assay: SPR, AAV on CM5 chip;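 note: surface plasmon resonance with AAV amine-coupled to the chip as ligand, nanobodies injected as analyte over a concentration series, rate constants and affinity fitted from binding curves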
T7 construct: also called adeno-associated virus serotype 5
Procedure: as §1

B1: A4-083 (VHH)
VHH: VQLQESGGGLVQTGGSLKLSCAASGSRFSLNTMGWYRQAPRKQREFVAAVTRGGNTNYGDFVKGRFTISRDNAKNTVYLQMNSLRPEDTAVYYCHVDELRESSWTTSNLWGQGTQVTVSS
Binder B1 has a Kd (AAV8 [1]) of 0.0424 µM, a koff (AAV8 [1]) of 0.00737 s⁻¹ and a kon (AAV8 [1]) of 174000 M⁻¹ s⁻¹. It also gave a Kd (AAV2) of 0.944 µM, a koff (AAV2) of 0.00344 s⁻¹ and a kon (AAV2) of 3640 M⁻¹ s⁻¹. It also gave a Kd (AAV9 [2]) of 0.0923 µM, a koff (AAV9 [2]) of 0.00657 s⁻¹ and a kon (AAV9 [2]) of 71200 M⁻¹ s⁻¹. It also gave a Kd (AAV5 [3]) of 0.031 µM, a koff (AAV5 [3]) of 0.00287 s⁻¹ and a kon (AAV5 [3]) of 92500 M⁻¹ s⁻¹.

B2: A4-099 (VHH)
VHH: VQLQESGGGLVQTGGSLRLSCAASGSSFSINTMGWYRQAPGKWRELVAAVTRGGDTNYAESVKGRFTISRDNGKNTVYLQMNSLRPEDTAVYYCHIDEIRESSWTTSNLWGQGTQVTVSS
With B2 the Kd (AAV8 [1]) was 0.00257 µM, the koff (AAV8 [1]) was 0.0005 s⁻¹ and the kon (AAV8 [1]) was 194000 M⁻¹ s⁻¹. For the same binder, the Kd (AAV2) was 0.00106 µM, the koff (AAV2) was 0.00021 s⁻¹ and the kon (AAV2) was 197000 M⁻¹ s⁻¹. It also gave a Kd (AAV9 [2]) of 0.000203 µM, a koff (AAV9 [2]) of 3e-05 s⁻¹ and a kon (AAV9 [2]) of 148000 M⁻¹ s⁻¹. For the same binder, the Kd (AAV5 [3]) was 0.00419 µM, the koff (AAV5 [3]) was 0.00041 s⁻¹ and the kon (AAV5 [3]) was 98000 M⁻¹ s⁻¹.

B3: A4-090 (VHH)
VHH: VQLQESGGGLVQPGGSLRLSCVASGSRFIINTMGWYRQAPGKQRELVATFTRGGNTNYAESVKGRFTISRDNGKSTVYLQMNSLRPEDTAVYYCHVDEVRESTWTTSNLWGQGTQVTVSS
B3 was tested, and the Kd (AAV8 [1]) was 0.0145 µM, the koff (AAV8 [1]) was 0.00109 s⁻¹ and the kon (AAV8 [1]) was 75300 M⁻¹ s⁻¹. It also gave a Kd (AAV2) of 0.00683 µM, a koff (AAV2) of 0.00136 s⁻¹ and a kon (AAV2) of 199000 M⁻¹ s⁻¹. The Kd (AAV9 [2]) was 0.0249 µM, the koff (AAV9 [2]) was 0.0015 s⁻¹ and the kon (AAV9 [2]) was 60400 M⁻¹ s⁻¹. The Kd (AAV5 [3]) was 0.121 µM, the koff (AAV5 [3]) was 0.00186 s⁻¹ and the kon (AAV5 [3]) was 15300 M⁻¹ s⁻¹.

B4: A4-103 (VHH)
VHH: VQLQESGGGLVQPGGSLRLSCAASGSIFSLNAMGWYRQAPGKQRELVATITRGGSTNYADSVKGRFTISRDNAKNTVYLQMNSLRPEDTAVYYCHVDEVRESIWTTSNLWGQGTQVTVSS
B4 showed a Kd (AAV8 [4]) of 0.0351 µM, a koff (AAV8 [4]) of 0.00182 s⁻¹ and a kon (AAV8 [4]) of 51900 M⁻¹ s⁻¹. For the same binder, the Kd (AAV9 [5]) was 0.0812 µM, the koff (AAV9 [5]) was 0.00107 s⁻¹ and the kon (AAV9 [5]) was 13200 M⁻¹ s⁻¹. It also gave a Kd (AAV5 [6]) of 0.0269 µM, a koff (AAV5 [6]) of 0.00137 s⁻¹ and a kon (AAV5 [6]) of 51000 M⁻¹ s⁻¹.

B5: A4-102 (VHH)
VHH: VQLQESGGGLVQPGGSLRLSCAASGSHFTINSVGWYRQAPGKQRELVAPVTRGGTTNYADFVKGRFTISRDNAKNTVYLQMNSLRPEDTAVYYCHVDELRDSSWTTSNLWGQGTQVTVSS
For B5, the Kd (AAV8 [4]) was 0.00786 µM, the koff (AAV8 [4]) was 0.0006 s⁻¹ and the kon (AAV8 [4]) was 76300 M⁻¹ s⁻¹. The Kd (AAV9 [5]) was 0.0308 µM, the koff (AAV9 [5]) was 0.00465 s⁻¹ and the kon (AAV9 [5]) was 151000 M⁻¹ s⁻¹. For the same binder, the Kd (AAV5 [6]) was 0.0404 µM, the koff (AAV5 [6]) was 0.007 s⁻¹ and the kon (AAV5 [6]) was 173000 M⁻¹ s⁻¹.

B6: A4-106 (VHH)
VHH: VQLQESGGGLVQPGGSLRLSCIASGSIFSLNAMGWYRQAPGKQRELVATITSGGSTNYADSVKGRFTISRDNAKNTAYLQMNNLQPEDTAVYYCHVDEVRESIWTTSNLWGQGTQVTVSS
Work on B6 yielded a Kd (AAV8 [4]) of 0.016 µM, a koff (AAV8 [4]) of 0.00191 s⁻¹ and a kon (AAV8 [4]) of 120000 M⁻¹ s⁻¹. The Kd (AAV9 [5]) was 0.00165 µM, the koff (AAV9 [5]) was 0.00011 s⁻¹ and the kon (AAV9 [5]) was 66600 M⁻¹ s⁻¹. It also gave a Kd (AAV5 [6]) of 0.00212 µM, a koff (AAV5 [6]) of 0.00042 s⁻¹ and a kon (AAV5 [6]) of 198000 M⁻¹ s⁻¹.

B7: A4-104 (VHH)
VHH: VQLQESGGGLVQPGGSLRLSCAASGSIFSLNSMGWYRQAPGKQRELVATITSGGSTNYAGSVKGRFTISRDNAKNTVYLQMNNLQPEDTAVYYCHVDEVRESSWTTSNLWGQGTQVTVSS
B7 showed a Kd (AAV8 [4]) of 0.0105 µM, a koff (AAV8 [4]) of 3e-05 s⁻¹ and a kon (AAV8 [4]) of 2860 M⁻¹ s⁻¹. It also gave a Kd (AAV9 [5]) of 0.451 µM, a koff (AAV9 [5]) of 0.00093 s⁻¹ and a kon (AAV9 [5]) of 2060 M⁻¹ s⁻¹. For the same binder, the Kd (AAV5 [6]) was 0.044 µM, the koff (AAV5 [6]) was 0.00037 s⁻¹ and the kon (AAV5 [6]) was 8420 M⁻¹ s⁻¹.

B8: A4-107 (VHH)
VHH: VQLQESGGGLVQPGGSLRLSCIASGSGFSINTVGWYRQAPAKQRELVATLTRGGSTNYADSVKGRFTISRDNPKNTVYLQMNSLRPEDTAVYYCHVDEVRQSSWTTSNIWGQGTQVTVSS
B8 was tested, and the Kd (AAV8 [4]) was 0.848 µM, the koff (AAV8 [4]) was 0.00101 s⁻¹ and the kon (AAV8 [4]) was 1190 M⁻¹ s⁻¹. The Kd (AAV9 [5]) was 1.68 µM, the koff (AAV9 [5]) was 0.00356 s⁻¹ and the kon (AAV9 [5]) was 2120 M⁻¹ s⁻¹. It also gave a Kd (AAV5 [6]) of 0.703 µM, a koff (AAV5 [6]) of 0.00353 s⁻¹ and a kon (AAV5 [6]) of 5020 M⁻¹ s⁻¹.

B9: A4-101 (VHH)
VHH: VQLQESGGGLVQPGGSLRLSCAASGSRFSINIMGWYRQAPGKQRELVASVTRGGTTNYADSVKGRFTISRDNPKNTIYLQMNSLRPEDTAVYYCHVDEIRESTWTTSNLWGQGTQVTVSS
B9 was tested, and the Kd (AAV8 [4]) was 0.162 µM, the koff (AAV8 [4]) was 0.00129 s⁻¹ and the kon (AAV8 [4]) was 7970 M⁻¹ s⁻¹. It also gave a Kd (AAV9 [5]) of 0.0134 µM, a koff (AAV9 [5]) of 9e-05 s⁻¹ and a kon (AAV9 [5]) of 6700 M⁻¹ s⁻¹. It also gave a Kd (AAV5 [6]) of 0.0708 µM, a koff (AAV5 [6]) of 0.00034 s⁻¹ and a kon (AAV5 [6]) of 4800 M⁻¹ s⁻¹.
